Data published in patent EP1207198A1.

Target: human brain-derived G protein-coupled receptor protein ZAQ (human)
Experiment: cell-based or functional assay

increase in the intracellular calcium ion concentration (FLIPR), EC50: 0.096 nM
Substance: Human type ZAQ ligand mature peptide (type G, 86 amino acid residues)
